{"source": "patent US7615610B2", "about": "“Modified trafficking patterns for arrestin and G-protein-coupled receptors via arrestin-ubiquitin chimera” (Duke University, priority 2003, dated 2009)", "key": {"β2AR [1]": {"biological_target": "T1, β2AR (Homo sapiens, UniProt P07550)", "test": "Receptor internalization (loss of cell surface receptors, flow cytometry), β2AR"}, "V2Rβ2CT": {"biological_target": "T2, V2Rβ2CT (Homo sapiens, UniProt P07550+P30518)", "T2 construct": "the first 342 amino acids of the V2R (Met1-Cys342); the last 72 amino acids of the β2AR (Leu342 to Leu 413); expressed in transfected cells; host or cells: HEK-293", "test": "Confocal microscopy of arrestin trafficking with V2Rβ2CT in HEK-293 cells", "format": "cell-based", "details": "live HEK-293 cells expressing V2Rβ2CT, 15 min and longer", "protocol": "Twenty-four hours post-transfection cells were plated on collagen-coated 35 mm glass bottom plates. Cells were starved for at least 2 hrs in serum free medium prior to stimulation. After stimulation cells were fixed with 4% paraformaldehyde. For visualizing HA-tagged receptors, fixed cells were permeabilized with 0.01% Triton in PBS containing 2% BSA for 20 min and incubated at room temperature with 12CA5 antibody at 1:500 dilution. The secondary antibody, antimouse IgG conjugated to TexasRed, followed this. Antibody incubations were done for one hour followed by repeated washes using PBS. Cells expressing low and equivalent levels of the fluorescent proteins were carefully selected to examine YFP-β-arrestins. […] Live images were acquired using a heated (37° C.) microscope stage and collected sequentially using single line excitation (488 nm)."}, "β2AR [2]": {"biological_target": "T1, β2AR", "test": "Coimmunoprecipitation of YFP-β-arrestins with Flag-β2AR in COS-7 cells", "format": "binding", "set-up": "expressed in transfected cells", "details": "Flag-β2AR IP, 15 minutes of agonist treatment", "source_text": "A) Stability of the ubiquitin chimera in COS-7 cells. […] The bands on the autorad were quantitated using Fluorimager and graphically represented in the figure. The zero time point represents 100% protein. The graph is an average of three independent experiments. B) Interaction of β-arrestin2-Ub chimera with β2AR. […] After stimulation or not the receptor was immunoprecipitated with anti-Flag beads in the absence (left panels) or presence (right panels) of the inhibitor NEM; the IP was blotted for YFP-β-arrestins with a monoclonal antibody to GFP (top panel). […] The blots are representative of similar blots from three independent experiments.\nImmunoprecipitation and Irnmunoblofting—To detect ubiquitinated β-arrestin2, β-arrestin2 with a C-terminal Flag epitope was transiently transfected into COS-7 cells. Cells were serum starved for at least 2 hrs and then stimulated or not for the stipulated times with the appropriate agonists. Cells were solubilized in a lysis buffer (LB) containing 50 mM Hepes (pH7.5), 0.5% NP40, 250 mM NaCl, 2 mM EDTA, 10% (vlv) glycerol, 1 mM sodium orthovanadate, 1 mM sodium fluoride, 1 mM phenylmethylsulfonyl fluoride, leupeptin (5 μg/ml) aprotinin (5 μg/ml), pepstatin A (1 μg/ml) benzaminidine (100 μM) 2 μM MG132 and 10 mM NEM. Soluble extracts were mixed with FLAG M2 affinity beads and rotated at 4° C. overnight. […]"}, "β2AR [3]": {"biological_target": "T1, β2AR", "test": "Confocal microscopy of arrestin trafficking with β2AR in HEK-293 cells", "format": "cell-based", "set-up": "expressed in transfected cells; host or cells: HEK-293", "details": "for colocalization with internalized β2AR in endocytic vesicles: fixed HEK-293 cells, HA-β2AR, 15 min isoproterenol; for distribution of YFP fluorescence after isoproterenol: live HEK293 cells over expressing β2AR, 10 μM isoproterenol, 15-30 min", "experimental": "Cells were starved for one hour in serum free media. […] Shown are representative confocal images of YFP-fluorescence followed in the same HEK-293 cells treated for 2, 15 and 30 min at 37° C.\nHEK-293 cells were transiently transfected with HA-β2AR and YFP-βarrestin2 (A) or YFP-β-arrestin2-Ub (B). After isoproterenol treatment or not the cells were fixed, permeabilized and stained for receptor with the primary antibody 12CA5 and secondary antibody anti mouse IgG conjugated to Texas Red. Shown are confocal images where receptor is visualized in the Red channels and β-arrestin in the green channels. Colocalization of two proteins is seen as yellow in the overlay. The results are representative of three independent experiments.\nHEK-293 cells on 10 cm dishes were transiently transfected with HA-β2AR, HA-V2R, HAβ2ARV2CT, or HAV2Rβ2CT, along with β-arr2-GFP, or YFP-βarrestin2, or YFP-β-arrestin2-Ub. Twenty-four hours post-transfection cells were plated on collagen-coated 35 mm glass bottom plates. Cells were starved for at least 2 hrs in serum free medium prior to stimulation. After stimulation cells were fixed with 4% paraformaldehyde. For visualizing HA-tagged receptors, fixed cells were permeabilized with 0.01% Triton in PBS containing 2% BSA for 20 min and incubated at room temperature with 12CA5 antibody at 1:500 dilution. The secondary antibody, antimouse IgG conjugated to TexasRed, followed this. Antibody incubations were done for one hour followed by repeated washes using PBS. Cells expressing low and equivalent levels of the fluorescent proteins were carefully selected to examine YFP-β-arrestins. Confocal images were obtained on Zeiss LSM510 laser scanning microscope using dual excitation (488, 568 nm) and emission (515-540 nm GFP, YFP; 590-610 nm, Texas red) filter sets. Live images were acquired using a heated (37° C.) microscope stage and collected sequentially using single line excitation (488 nm)."}, "β2AR [4]": {"biological_target": "T1, β2AR"}}, "data": [{"molecule": "CN(C)c1cccc2c(S(=O)(=O)NCCCCCN)cccc12", "note": "[MDC, monodansylcadaverine]", "values": [{"measurement": "reduction of internalization", "setting": "β2AR [1]; pretreatment of cells with 200 μM MDC, data not shown", "value": 45, "unit": "%"}]}, {"molecule": "YFP-β-arrestin2-Ub: YFP-labelled β-arrestin2-ubiquitin chimera from pEYFPC1 (SEQ ID NOS:1-2)", "values": [{"measurement": "distribution of YFP fluorescence after AVP", "setting": "V2Rβ2CT", "value": "moved into endocytic vesicles as early as 15 min"}, {"measurement": "receptor-bound (coimmunoprecipitated) arrestin bands", "setting": "β2AR [2]", "value": "detectable with the chimeric protein"}, {"measurement": "colocalization with internalized β2AR in endocytic vesicles", "setting": "β2AR [3]", "value": "colocalize with the internalized β2AR"}, {"measurement": "distribution of YFP fluorescence after isoproterenol", "setting": "β2AR [3]", "value": "redistribute from the plasma membrane to endocytic vesicles"}]}, {"molecule": "YFP-β-arrestin2: wild type β-arrestin2 tagged with YFP, comparator", "values": [{"measurement": "receptor-bound (coimmunoprecipitated) arrestin bands", "setting": "β2AR [2]", "value": "not detectable"}, {"measurement": "colocalization with internalized β2AR in endocytic vesicles", "setting": "β2AR [3]", "value": "did not however contain any YFP-β-arrestin2"}, {"measurement": "distribution of YFP fluorescence after isoproterenol", "setting": "β2AR [3]", "value": "unaltered at 30 min of isoproterenol treatment"}]}, {"molecule": "β-arrestin2: wild type β-arrestin2 overexpressed as comparator", "values": [{"measurement": "β2AR internalization", "setting": "β2AR [1]; HEK293 cells, arrestin overexpressed with Flag-β2AR, 10 μM isoproterenol 30 min, mean±SEM", "value": "33±1.6", "unit": "%"}, {"measurement": "increase in amount of β2AR degradation", "setting": "β2AR [4]", "value": "6-7%"}]}]}
